According to IntAct's records for PubMed 16482218:

B1: Transcription factor Dp-2 (Mus musculus), Q64163-4 (parent)
chain: MIISTPQRIANSGSVLIGNPYTPAPAMVTQTHIAEAAGWVPSDRKRAREFIDSDFSESKRSKKGDKNGKGLRHFSMKVCEKVQRKGTTSYNEVADELVSEFTNSNNHLAADSAYDQENIRRRVYDALNVLMAMNIISSLPTGKKRNQVDCNSAQECQNLEIEKQRRIERIKQKRAQLQELLLQQIAFKNLVQRNRQNEQQNQGPPAVNSTIQLPFIIINTSRKTVIDCSISSDKFEYLFNFDNTFEIHDDIEVLKRMGMSFGLESGKCSLEDLKIARSLVPKALEGYITDISTGPSWLNQGLLLNSTQSVSNLDPTTGATVPQSSVNQGLCLDAEVALATGQLPASNSHQSSSAASHFSESRGETPCSFNDEDEEDEEEDPSSPE

Variants of: B1
Settings: with 1433e_mouse Ywhae

Effect of a mutation on the interaction, disrupting interaction:
MIISTPQRIANSGSVLIGNPYTPAPAMVTQTHIAEAAGWVPADRKRAREFIDSDFSESKRSKKGDKNGKGLRHFSMKVCEKVQRKGTTSYNEVADELVSEFTNSNNHLAADSAYDQENIRRRVYDALNVLMAMNIISSLPTGKKRNQVDCNSAQECQNLEIEKQRRIERIKQKRAQLQELLLQQIAFKNLVQRNRQNEQQNQGPPAVNSTIQLPFIIINTSRKTVIDCSISSDKFEYLFNFDNTFEIHDDIEVLKRMGMSFGLESGKCSLEDLKIARSLVPKALEGYITDISTGPSWLNQGLLLNSTQSVSNLDPTTGATVPQSSVNQGLCLDAEVALATGQLPASNSHQSSSAASHFSESRGETPCSFNDEDEEDEEEDPSSPE [S42A]
MIISTPQRIANSGSVLIGNPYTPAPAMVTQTHIAEAAGWVPSDRKRAREFIDADFSESKRSKKGDKNGKGLRHFSMKVCEKVQRKGTTSYNEVADELVSEFTNSNNHLAADSAYDQENIRRRVYDALNVLMAMNIISSLPTGKKRNQVDCNSAQECQNLEIEKQRRIERIKQKRAQLQELLLQQIAFKNLVQRNRQNEQQNQGPPAVNSTIQLPFIIINTSRKTVIDCSISSDKFEYLFNFDNTFEIHDDIEVLKRMGMSFGLESGKCSLEDLKIARSLVPKALEGYITDISTGPSWLNQGLLLNSTQSVSNLDPTTGATVPQSSVNQGLCLDAEVALATGQLPASNSHQSSSAASHFSESRGETPCSFNDEDEEDEEEDPSSPE [S53A]
MIISTPQRIANSGSVLIGNPYTPAPAMVTQTHIAEAAGWVPSDRKRAREFIDSDFSESKRAKKGDKNGKGLRHFSMKVCEKVQRKGTTSYNEVADELVSEFTNSNNHLAADSAYDQENIRRRVYDALNVLMAMNIISSLPTGKKRNQVDCNSAQECQNLEIEKQRRIERIKQKRAQLQELLLQQIAFKNLVQRNRQNEQQNQGPPAVNSTIQLPFIIINTSRKTVIDCSISSDKFEYLFNFDNTFEIHDDIEVLKRMGMSFGLESGKCSLEDLKIARSLVPKALEGYITDISTGPSWLNQGLLLNSTQSVSNLDPTTGATVPQSSVNQGLCLDAEVALATGQLPASNSHQSSSAASHFSESRGETPCSFNDEDEEDEEEDPSSPE [S61A]
MIISTPQRIANSGSVLIGNPYTPAPAMVTQTHIAEAAGWVPSDRKRAREFIDSDFAESKRSKKGDKNGKGLRHFSMKVCEKVQRKGTTSYNEVADELVSEFTNSNNHLAADSAYDQENIRRRVYDALNVLMAMNIISSLPTGKKRNQVDCNSAQECQNLEIEKQRRIERIKQKRAQLQELLLQQIAFKNLVQRNRQNEQQNQGPPAVNSTIQLPFIIINTSRKTVIDCSISSDKFEYLFNFDNTFEIHDDIEVLKRMGMSFGLESGKCSLEDLKIARSLVPKALEGYITDISTGPSWLNQGLLLNSTQSVSNLDPTTGATVPQSSVNQGLCLDAEVALATGQLPASNSHQSSSAASHFSESRGETPCSFNDEDEEDEEEDPSSPE [S56A]
MIISTPQRIANSGSVLIGNPYTPAPAMVTQTHIAEAAGWVPSDRKRAREFIDSDFSEAKRSKKGDKNGKGLRHFSMKVCEKVQRKGTTSYNEVADELVSEFTNSNNHLAADSAYDQENIRRRVYDALNVLMAMNIISSLPTGKKRNQVDCNSAQECQNLEIEKQRRIERIKQKRAQLQELLLQQIAFKNLVQRNRQNEQQNQGPPAVNSTIQLPFIIINTSRKTVIDCSISSDKFEYLFNFDNTFEIHDDIEVLKRMGMSFGLESGKCSLEDLKIARSLVPKALEGYITDISTGPSWLNQGLLLNSTQSVSNLDPTTGATVPQSSVNQGLCLDAEVALATGQLPASNSHQSSSAASHFSESRGETPCSFNDEDEEDEEEDPSSPE [S58A]
